From publication PMC10214526, “Semisynthetic LC3 Probes for Autophagy Pathways Reveal a Noncanonical LC3 Interacting Region Motif Crucial for the Enzymatic Activity of Human ATG3” (ACS Central Science, 2023) come the findings set out here.

This assay concerns the target GABARAP(ΔG116)–NHNH methyl-fumarate 2 (UniProt O95166). As to the kind of experiment: cross-linking assay with probe 2, Coomassie SDS-PAGE gel densitometry. The note with it: GABARAP probe 2 15 μM; ATG3 C1 alanine variants 15 μM; 30 min; parent: est. 1.0; read off a plot.

GABARAP(ΔG116)–NHNH methyl-fumarate 2, sequence (O95166 1-115, stated change not applied): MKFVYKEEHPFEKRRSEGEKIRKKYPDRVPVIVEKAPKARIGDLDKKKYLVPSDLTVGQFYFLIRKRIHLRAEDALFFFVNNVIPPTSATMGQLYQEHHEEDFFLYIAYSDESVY
ATG3 C1, Q9NT62 E99A, sequence (Q9NT62 whole entry E99A): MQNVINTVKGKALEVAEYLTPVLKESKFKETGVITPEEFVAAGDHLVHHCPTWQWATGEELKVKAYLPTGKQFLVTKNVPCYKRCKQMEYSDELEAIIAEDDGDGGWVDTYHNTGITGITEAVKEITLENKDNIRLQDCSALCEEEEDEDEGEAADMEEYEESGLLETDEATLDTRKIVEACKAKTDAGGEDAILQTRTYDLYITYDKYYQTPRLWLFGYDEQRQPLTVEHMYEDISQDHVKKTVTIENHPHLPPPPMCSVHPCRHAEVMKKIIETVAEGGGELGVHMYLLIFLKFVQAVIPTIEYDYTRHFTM
ATG3 C1, Q9NT62 T110A, sequence (Q9NT62 other isoform, or with tags, fused parts or gaps T110A): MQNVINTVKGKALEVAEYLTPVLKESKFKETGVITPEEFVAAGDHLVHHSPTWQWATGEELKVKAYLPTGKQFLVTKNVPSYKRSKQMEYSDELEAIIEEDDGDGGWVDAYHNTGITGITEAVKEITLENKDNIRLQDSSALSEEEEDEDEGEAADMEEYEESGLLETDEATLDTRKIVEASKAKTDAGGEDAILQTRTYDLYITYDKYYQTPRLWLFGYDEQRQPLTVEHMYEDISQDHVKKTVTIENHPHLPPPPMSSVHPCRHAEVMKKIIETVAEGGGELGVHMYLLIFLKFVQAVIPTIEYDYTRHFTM
ATG3 C1, Q9NT62 I98A, sequence (Q9NT62 whole entry I98A): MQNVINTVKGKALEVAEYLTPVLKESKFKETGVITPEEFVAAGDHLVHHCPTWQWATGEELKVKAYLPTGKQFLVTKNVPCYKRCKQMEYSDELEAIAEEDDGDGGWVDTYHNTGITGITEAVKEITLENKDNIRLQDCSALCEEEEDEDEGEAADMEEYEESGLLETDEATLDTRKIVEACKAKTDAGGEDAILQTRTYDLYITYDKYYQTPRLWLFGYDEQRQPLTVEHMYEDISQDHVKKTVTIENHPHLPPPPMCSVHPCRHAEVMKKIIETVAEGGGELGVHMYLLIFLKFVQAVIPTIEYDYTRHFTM
ATG3 C1, Q9NT62 Y111A, sequence (Q9NT62 whole entry Y111A): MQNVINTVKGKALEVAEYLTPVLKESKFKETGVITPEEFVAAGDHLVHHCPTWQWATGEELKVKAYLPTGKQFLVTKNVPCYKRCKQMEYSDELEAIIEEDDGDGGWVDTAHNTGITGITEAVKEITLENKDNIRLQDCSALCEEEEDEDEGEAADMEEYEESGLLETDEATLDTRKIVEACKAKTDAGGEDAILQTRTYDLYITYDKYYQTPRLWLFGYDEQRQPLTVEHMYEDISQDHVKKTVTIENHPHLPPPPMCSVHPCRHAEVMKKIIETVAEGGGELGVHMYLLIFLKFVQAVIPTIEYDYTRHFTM
ATG3 C1, Q9NT62 W107A, sequence (Q9NT62 whole entry W107A): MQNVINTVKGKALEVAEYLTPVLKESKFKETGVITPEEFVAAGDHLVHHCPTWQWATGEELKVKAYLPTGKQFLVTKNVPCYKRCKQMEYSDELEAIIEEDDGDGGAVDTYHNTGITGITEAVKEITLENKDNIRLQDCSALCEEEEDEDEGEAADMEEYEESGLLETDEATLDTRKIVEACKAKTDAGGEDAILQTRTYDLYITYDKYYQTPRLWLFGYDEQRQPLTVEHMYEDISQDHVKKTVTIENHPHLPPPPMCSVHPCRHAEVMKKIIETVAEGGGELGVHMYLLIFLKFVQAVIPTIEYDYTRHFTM
ATG3 C1, Q9NT62 D92A, sequence (Q9NT62 whole entry D92A): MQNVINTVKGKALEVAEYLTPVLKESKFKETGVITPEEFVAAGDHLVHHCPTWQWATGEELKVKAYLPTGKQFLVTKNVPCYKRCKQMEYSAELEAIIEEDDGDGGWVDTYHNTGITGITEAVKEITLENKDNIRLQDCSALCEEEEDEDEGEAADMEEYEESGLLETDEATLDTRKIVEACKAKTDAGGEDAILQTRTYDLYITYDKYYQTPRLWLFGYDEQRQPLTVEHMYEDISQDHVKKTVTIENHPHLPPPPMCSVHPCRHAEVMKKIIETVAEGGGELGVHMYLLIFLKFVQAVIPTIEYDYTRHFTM
ATG3 C1, Q9NT62 V108A, sequence (Q9NT62 other isoform, or with tags, fused parts or gaps V108A): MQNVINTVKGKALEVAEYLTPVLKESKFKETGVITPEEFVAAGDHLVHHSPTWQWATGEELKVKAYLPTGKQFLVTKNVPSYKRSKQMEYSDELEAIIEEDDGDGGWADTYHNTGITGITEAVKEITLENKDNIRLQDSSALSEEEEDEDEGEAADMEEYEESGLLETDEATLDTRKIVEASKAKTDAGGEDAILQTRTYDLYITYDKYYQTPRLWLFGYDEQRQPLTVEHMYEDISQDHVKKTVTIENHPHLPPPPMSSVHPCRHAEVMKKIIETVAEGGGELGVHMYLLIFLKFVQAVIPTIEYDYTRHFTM
ATG3 C1, Q9NT62 E95A, sequence (Q9NT62 whole entry E95A): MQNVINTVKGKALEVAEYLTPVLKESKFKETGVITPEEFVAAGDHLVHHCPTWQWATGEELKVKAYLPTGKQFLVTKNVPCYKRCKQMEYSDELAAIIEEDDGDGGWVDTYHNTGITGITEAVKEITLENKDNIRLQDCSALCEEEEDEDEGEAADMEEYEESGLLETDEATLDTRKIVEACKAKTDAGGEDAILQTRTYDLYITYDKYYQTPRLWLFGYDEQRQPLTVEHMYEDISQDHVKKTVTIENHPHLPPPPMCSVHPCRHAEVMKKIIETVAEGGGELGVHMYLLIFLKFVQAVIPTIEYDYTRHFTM
ATG3 C1, Q9NT62 Y90A, sequence (Q9NT62 whole entry Y90A): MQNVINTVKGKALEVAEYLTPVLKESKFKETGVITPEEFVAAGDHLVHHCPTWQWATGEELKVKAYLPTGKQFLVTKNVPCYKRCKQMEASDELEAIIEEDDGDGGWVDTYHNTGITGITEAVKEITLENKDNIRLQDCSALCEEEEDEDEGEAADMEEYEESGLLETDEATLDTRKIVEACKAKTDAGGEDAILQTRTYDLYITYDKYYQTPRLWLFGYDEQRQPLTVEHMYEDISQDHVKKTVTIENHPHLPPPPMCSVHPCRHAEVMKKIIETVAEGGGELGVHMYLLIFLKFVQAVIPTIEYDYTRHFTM
ATG3 C1, Q9NT62 D109A, sequence (Q9NT62 other isoform, or with tags, fused parts or gaps D109A): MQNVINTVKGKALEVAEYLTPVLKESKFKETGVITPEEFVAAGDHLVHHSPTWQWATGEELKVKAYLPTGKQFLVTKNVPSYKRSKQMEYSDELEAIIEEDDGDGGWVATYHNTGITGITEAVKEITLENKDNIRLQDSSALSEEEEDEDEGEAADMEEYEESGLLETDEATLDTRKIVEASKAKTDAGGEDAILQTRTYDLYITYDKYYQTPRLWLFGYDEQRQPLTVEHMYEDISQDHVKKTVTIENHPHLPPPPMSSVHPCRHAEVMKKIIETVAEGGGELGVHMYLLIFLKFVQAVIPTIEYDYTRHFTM
ATG3 C1, Q9NT62 I97A, sequence (Q9NT62 whole entry I97A): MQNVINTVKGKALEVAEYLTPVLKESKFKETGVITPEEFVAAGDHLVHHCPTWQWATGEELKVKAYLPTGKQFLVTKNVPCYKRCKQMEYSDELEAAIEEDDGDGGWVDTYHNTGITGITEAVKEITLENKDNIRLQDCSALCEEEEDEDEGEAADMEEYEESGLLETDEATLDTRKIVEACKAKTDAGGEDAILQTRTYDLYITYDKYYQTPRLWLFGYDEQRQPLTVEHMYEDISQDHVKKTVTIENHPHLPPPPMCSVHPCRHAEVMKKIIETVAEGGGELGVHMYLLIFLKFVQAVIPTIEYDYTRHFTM
ATG3 C1, Q9NT62 D102A, sequence (Q9NT62 whole entry D102A): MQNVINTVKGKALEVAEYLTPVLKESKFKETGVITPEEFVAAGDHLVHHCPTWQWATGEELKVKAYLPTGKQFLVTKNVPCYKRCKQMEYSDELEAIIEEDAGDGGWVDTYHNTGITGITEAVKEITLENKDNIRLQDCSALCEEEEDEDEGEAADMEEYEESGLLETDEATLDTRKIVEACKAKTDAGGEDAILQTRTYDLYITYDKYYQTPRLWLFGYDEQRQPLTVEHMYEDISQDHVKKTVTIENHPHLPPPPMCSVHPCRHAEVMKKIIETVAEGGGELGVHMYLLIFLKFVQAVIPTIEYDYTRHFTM
ATG3 C1, Q9NT62 D104A, sequence (Q9NT62 whole entry D104A): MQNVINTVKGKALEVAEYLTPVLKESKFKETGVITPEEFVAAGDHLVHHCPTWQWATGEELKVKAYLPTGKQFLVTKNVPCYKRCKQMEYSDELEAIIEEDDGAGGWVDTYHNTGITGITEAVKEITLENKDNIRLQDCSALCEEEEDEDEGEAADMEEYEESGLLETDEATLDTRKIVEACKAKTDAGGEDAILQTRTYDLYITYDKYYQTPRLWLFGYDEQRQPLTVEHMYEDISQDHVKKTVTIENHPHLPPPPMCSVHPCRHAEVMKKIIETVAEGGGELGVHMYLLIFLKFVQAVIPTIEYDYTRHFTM

Take ATG3 C1, Q9NT62 D92A: the ratio to parent was 1.

As to ATG3 C1, Q9NT62 D102A, the ratio to parent turned out to be 0.38.

With ATG3 C1, Q9NT62 D104A, the ratio to parent was 0.55.

Take ATG3 C1, Q9NT62 D109A: the ratio to parent was found to be 1.4.

Consider ATG3 C1, Q9NT62 E95A, for which the ratio to parent was found to be 0.35.

On to ATG3 C1, Q9NT62 E99A, for which the ratio to parent was determined as 0.52.

ATG3 C1, Q9NT62 I97A: the ratio to parent was determined as 0.31.

Consider ATG3 C1, Q9NT62 I98A, for which the ratio to parent came to 0.74.

As for ATG3 C1, Q9NT62 T110A, the ratio to parent came to 0.8.

In the case of ATG3 C1, Q9NT62 V108A, the ratio to parent stood at 0.38.

As to ATG3 C1, Q9NT62 W107A, the ratio to parent was 0.17.

ATG3 C1, Q9NT62 Y90A: the ratio to parent is 0.61.

In the case of ATG3 C1, Q9NT62 Y111A, the ratio to parent was found to be 0.69.
